{"source": "paper PMC3829608", "about": "(Molecular cancer therapeutics, 2012)", "key": {"[1]": {"assay": "Live animal FMT imaging of orthotopic Gli36Δ5 brain tumors", "assay_type": "in vivo, mice", "conditions": "mouse, in vivo, iv, 1 nmol/g"}, "[2]": {"system": "Gli36Δ5 orthotopic brain tumors", "assay": "Live animal FMT imaging of orthotopic Gli36Δ5 brain tumors", "assay_type": "in vivo, mice", "conditions": "representative FMT 3-dimensional reconstruction, matching ROIs, 1 nmol/g"}, "[3]": {"system": "U87-MG orthotopic brain tumors", "assay": "Live animal FMT imaging of orthotopic U87-MG brain tumors", "assay_type": "in vivo, mice", "conditions": "representative FMT 3-dimensional reconstruction, matching ROIs, 1 nmol/g"}, "[4]": {"assay": "Live animal FMT imaging of orthotopic U87-MG brain tumors", "assay_type": "in vivo, mice", "conditions": "mouse, in vivo, iv, 1 nmol/g"}, "A431 cells": {"system": "A431 cells", "assay": "Uptake in A431 cells with EGF stimulation", "assay_type": "cell-based, human", "conditions": "A431 cells in the presence of the EGF ligand"}, "EGFR [5]": {"biological_target": "T1, EGFR (Homo sapiens, UniProt P00533)", "assay": "Saturation binding assay on Gli36Δ5 cells"}, "EGFR [6]": {"biological_target": "T1, EGFR", "conditions": "radioligand binding assays; cited from earlier work"}}, "note": "Entries after “also recorded” stand apart in the source; their conditions may differ.", "data": [{"compound": "CC[C@H](C)[C@H](NC(=O)[C@@H](NC(=O)[C@H](CC(N)=O)NC(=O)[C@H](CCC(N)=O)NC(=O)[C@@H]1CCCN1C(=O)[C@@H](NC(=O)[C@H](Cc1ccc(O)cc1)NC(=O)CNC(=O)[C@H](Cc1ccc(O)cc1)NC(=O)[C@H](Cc1c[nH]c2ccccc12)NC(=O)[C@H](Cc1c[nH]cn1)NC(=O)[C@H](Cc1ccc(O)cc1)NC(=O)COCCOCCNC(=O)CCCCCN1C(=CC=CC=CC2=[N+](CC)c3ccc4c(S(=O)(=O)[O-])cc(S(=O)(=O)O)cc4c3C2(C)C)C(C)(C)c2c1ccc1c(S(=O)(=O)O)cc(S(=O)(=O)O)cc21)[C@@H](C)O)C(C)C)C(N)=O", "note": "[Compound 2]", "values": [{"measurement": "tissue uptake dose at 1 h", "setting": "[1]", "result": 1.1, "unit": "%ID"}, {"measurement": "Amount of fluorescence in ROI, Gli36Δ5", "setting": "[2]", "result": "9,271 nmol/L"}, {"measurement": "Amount of fluorescence in ROI, U87-MG", "setting": "[3]", "result": "1,608 nmol/L"}, {"measurement": "tissue uptake dose at 1 h", "setting": "[4]", "result": 0.27, "unit": "%ID"}, {"measurement": "Uptake in A431 cells on stimulation with EGF", "setting": "A431 cells", "result": "increasing fluorescence; also recorded: increased the level of uptake"}]}, {"compound": "Cy5.5-(AEEA)2-YHWYGYTPQNVI-amide [Compound 3]", "values": [{"measurement": "Affinity for the cells (in words)", "setting": "EGFR [5]", "result": "micromolar range"}]}, {"compound": "Cy5.5-(AEEA)3-YHWYGYTPQNVI-amide [Compound 4]", "values": [{"measurement": "Affinity for the cells (in words)", "setting": "EGFR [5]", "result": "micromolar range"}]}, {"compound": "Cy5.5-YHWYGYTPQNVI-amide [Compound 1]", "values": [{"measurement": "Affinity for the cells (in words)", "setting": "EGFR [5]", "result": "micromolar range"}]}, {"compound": "YHWYGYTPQNVI [GE11]", "values": [{"measurement": "Binding affinity for EGFR (in words)", "setting": "EGFR [6]", "result": "nanomolar range"}]}]}
